Test results: publication PMC9713472 (2022)

B1: AURKA-Venus WT [human] / TPX2 [human (endogenous in U2OS)] (parent complex)
chain 1: MDRSKENCISGPVKATAPVGGPKRVLVTQQFPCQNPLPVNSGQAQRVLCPSNSSQRIPLQAQKLVSSHKPVQNQKQKQLQATSVPHPVSRPLNNTQKSKQPLPSAPENNPEEELASKQKNEESKKRQWALEDFEIGRPLGKGKFGNVYLAREKQSKFILALKVLFKAQLEKAGVEHQLRREVEIQSHLRHPNILRLYGYFHDATRVYLILEYAPLGTVYRELQKLSKFDEQRTATYITELANALSYCHSKRVIHRDIKPENLLLGSAGELKIADFGWSVHAPSSRRTTLCGTLDYLPPEMIEGRMHDEKVDLWSLGVLCYEFLVGKPPFEANTYQETYKRISRVEFTFPDFVTEGARDLISRLLKHNPSQRPMLREVLEHPWITANSSKPSNCQNKESASKQS
chain 2: MSQVKSSYSYDAPSDFINFSSLDDEGDTQNIDSWFEEKANLENKLLGKNGTGGLFQGKTPLRKANLQQAIVTPLKPVDNTYYKEAEKENLVEQSIPSNACSSLEVEAAISRKTPAQPQRRSLRLSAQKDLEQKEKHHVKMKAKRCATPVIIDEILPSKKMKVSNNKKKPEEEGSAHQDTAEKNASSPEKAKGRHTVPCMPPAKQKFLKSTEEQELEKSMKMQQEVVEMRKKNEEFKKLALAGIGQPVKKSVSQVTKSVDFHFRTDERIKQHPKNQEEYKEVNFTSELRKHPSSPARVTKGCTIVKPFNLSQGKKRTFDETVSTYVPLAQQVEDFHKRTPNRYHLRSKKDDINLLPSKSSVTKICRDPQTPVLQTKHRARAVTCKSTAELEAEELEKLQQYKFKARELDPRILEGGPILPKKPPVKPPTEPIGFDLEIEKRIQERESKKKTEDEHFEFHSRPCPTKILEDVVGVPEKKVLPITVPKSPAFALKNRIRMPTKEDEEEDEPVVIKAQPVPHYGVPFKPQIPEARTVEICPFSFDSRDKERQLQKEKKIKELQKGEVPKFKALPLPHFDTINLPEKKVKNVTQIEPFCLETDRRGALKAQTWKHQLEEELRQQKEAACFKARPNTVISQEPFVPKKEKKSVAEGLSGSLVQEPFQLATEKRAKERQELEKRMAEVEAQKAQQLEEARLQEEEQKKEELARLRRELVHKANPIRKYQGLEIKSSDQPLTVPVSPKFSTRFHC

Variants of: B1
Assay: in situ proximity ligation assay (isPLA); mitotic U2OS cells, endogenous TPX2, n ≥ 10 cells; read off a plot

| Variant | response [AU] |
| --- | --- |
| chain 1 S155R | ~2.6 |
| chain 1 R371A | ~3 |

More lines, now with the values ahead:

| response [AU] | Variant |
| --- | --- |
| ~3.7 | chain 1 L374I |
| ~1.3 | chain 1 R371A, chain 1 L374A |
